# Data reported in patent US20220267427A1.
# Key:
# [1] = target: fCK18 in apoptosis-induced HepG2 cell culture supernatant (human) (UniProt P05783); test: commercial fCK18 kit ELISA with M30 conjugate; fCK18 0.74 ng/mL
# [2] = target: fCK18 in apoptosis-induced HepG2 cell culture supernatant (human) (UniProt P05783); test: commercial fCK18 kit ELISA with M30 conjugate; fCK18 2.23 ng/mL
# [3] = target: fCK18 in apoptosis-induced HepG2 cell culture supernatant (human) (UniProt P05783); test: commercial fCK18 kit ELISA with M30 conjugate
# [4] = target: fCK18 in apoptosis-induced HepG2 cell culture supernatant (human) (UniProt P05783); test: commercial fCK18 kit ELISA with M30 conjugate; fCK18 60.73 ng/mL
# [5] = target: fCK18 in apoptosis-induced HepG2 cell culture supernatant (human) (UniProt P05783); test: commercial fCK18 kit ELISA with M30 conjugate; fCK18 6.79 ng/mL
# [6] = target: fCK18 in apoptosis-induced HepG2 cell culture supernatant (human) (UniProt P05783); test: commercial fCK18 kit ELISA with M30 conjugate; fCK18 20.27 ng/mL
# [7] = target: fCK18 in apoptosis-induced HepG2 cell culture supernatant (human) (UniProt P05783); test: commercial fCK18 kit ELISA with M30 conjugate; fCK18 182.28 ng/mL
# [8] = target: fCK18 in apoptosis-induced HepG2 cell culture supernatant (human) (UniProt P05783); test: commercial fCK18 kit ELISA with M30 conjugate; fCK18 0.09 ng/mL
# [9] = target: fCK18 in apoptosis-induced HepG2 cell culture supernatant (human) (UniProt P05783); test: commercial fCK18 kit ELISA with M30 conjugate; fCK18 0.28 ng/mL
# fCK18 in apoptosis-induced HepG2 cell culture supernatant (human), sequence (P05783 239-397): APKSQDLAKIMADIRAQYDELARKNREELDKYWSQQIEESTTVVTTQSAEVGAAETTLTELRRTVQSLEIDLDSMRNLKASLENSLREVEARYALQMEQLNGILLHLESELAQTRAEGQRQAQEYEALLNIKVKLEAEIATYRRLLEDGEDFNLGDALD
substance,measurement,setting,value
M30 antibody,S/N ratio,[1],1.5
same,S/N ratio,[2],2.4
same,fCK18 concentration detectable (S/N ratio of 2 or more),[3],> 2.23 ng/mL
same,S/N ratio,[4],37.5
same,S/N ratio,[5],5.1
same,S/N ratio,[6],12.8
same,S/N ratio,[7],48.3
same,S/N ratio,[8],1.1
same,S/N ratio,[9],1.2
